Laboratory results from patent publication US20240034764A1.

Molecular target: IL-10Rα receptor on MC/9 mouse mast cells (mouse) (UniProt Q61727)
Experiment: cell-based or functional assay

Chain of UniProt Q61727 (Q61727 17-575): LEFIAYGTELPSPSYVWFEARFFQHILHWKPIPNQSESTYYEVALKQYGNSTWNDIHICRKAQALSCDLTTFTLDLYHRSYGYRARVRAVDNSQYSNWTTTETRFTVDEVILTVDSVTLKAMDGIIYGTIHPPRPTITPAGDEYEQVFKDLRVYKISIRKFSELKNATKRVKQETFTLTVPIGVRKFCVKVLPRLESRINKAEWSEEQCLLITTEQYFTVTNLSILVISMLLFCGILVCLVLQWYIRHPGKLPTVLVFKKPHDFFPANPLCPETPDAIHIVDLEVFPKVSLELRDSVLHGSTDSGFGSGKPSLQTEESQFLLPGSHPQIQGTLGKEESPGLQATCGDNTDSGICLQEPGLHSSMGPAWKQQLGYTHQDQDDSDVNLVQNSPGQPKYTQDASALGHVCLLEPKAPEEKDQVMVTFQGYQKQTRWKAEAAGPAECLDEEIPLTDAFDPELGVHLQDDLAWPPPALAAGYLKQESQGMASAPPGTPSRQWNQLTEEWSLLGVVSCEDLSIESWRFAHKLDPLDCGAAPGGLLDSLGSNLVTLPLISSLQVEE

Substance: recombinant human IL-10 (Peprotech catalog number 200-10) (from UniProt P22301 19-178) (ligand)
- half maximal effective concentration (EC50), proliferation of MC/9 cells in the presence of IL4 (Alamar Blue): 0.0917 nM
